Here are results for 16 molecules from patent US20120129766A1 (IRM, published 2012).

The labels stand for the following.
B1: hFGF21(33-209)-V86 (ligand)
chain: DSSPLLQFGGQVRQRYLYTDDAQQTEAHLEIREDGTVGGAADQSPESLLQLRALRPGVIQILGVRTSRFLCQRPDGALYGSLHFDPEACSFRELLLEDGYNVYQSEAHGLPLHLPGNRSPHKDPAPRGPARFLPLPGLPPAPPEPPGILAPQPPDVGSSDPLAMVGPSQGRSPSYAS
B2: hFGF21(33-209)-V87 (ligand)
chain: DSSPLLQFGGQVRQRYLYTDDACQTEAHLEIREDGTVGGAADQSPESLLQLRALRPGVIQILGVRTSRFLCQRPDGALYGSLHFDPEACSFRELLLEDGYNVYQSEAHGLPLHLPCNRSPHKDPAPRGPARFLPLPGLPPAPPEPPGILAPQPPDVGSSDPLAMVGPSQGRSPSYAS
B3: hFGF21(33-209)-V73 (ligand)
chain: DSSPLLQFGGQVRQRYLYTDDAQETEAHLEIREDGTVGGAAHQSPESLLELKALKPGVIQILGVKTSRFLCQKPDGALYGSLHFDPEACSFRELLLEEGYNVYQSEAHGLPLHLPGNRSPHRDPAPQGPARFLPLPGLPPALPEPPGILAPQPPDVGSSDPLAMVGPSQGRSPSYAS
B4: hFGF21(33-209)-V84 (ligand)
chain: DSSPLLQFGGQVRQRYLYTDDAQQTEAHLEIREDGTVGGAADQSPESLLELKALKPGVIQILGVKTSRFLCQRPDGTLYGSLHFDPEACSFRELLLEDGYNVYQSETHGLPLHLPGNRSPHCDPASRGPARFLPLPGLPPALPEPPGILAPQPPDVGSSDPLAMVGPSQARSPSYAS
B5: hFGF21(33-209)-V76-154C-40 kDa-bPEG-MA (ligand)
chain: DSSPLLQFGGQVRQRYLYTDDAQETEAHLEIREDGTVGGAAHQSPESLLELKALKPGVIQILGVKTSRFLCQKPDGALYGSLHFDPEACSFRELLLEDGYNVYQSEAHGLPLHLPGNRSPHCDPAPQGPARFLPLPGLPPALPEPPGILAPQPPDVGSSDPLAMVGPSQGRSPSYAS
modifications: 40 kDa branched maleimido-PEG on Cys 154 (numbered on SEQ ID NO:1)
B6: hFGF21(33-209)-V9 (ligand)
chain: DSSPLLQFGGQVRQRYLYTDDDQQTEAHLEIREDGTVGGAAHQSPESLLQLKALKPGVIQILGVKASRFLCQKPDGALYGSLHFDPEACSFRELLLENGYNVYQSETHGLPLHLPGNKSPHRDPASQGPARFLPLPGLPPALPEPPGILAPQPPDVGSSDPLAMVGPSQARSPSYAS
B7: hFGF21(33-209)-V81 (ligand)
chain: DSSPLLQFGGQVRQRYLYTDDAQQTEAHLEIREDGTVGGAAHQSPESLLELKALKPGVIQILGVKTSRFLCQKPDGALYGSLHFDPEACSFRELLLEDGYNVYQSEAHGLPLHLPGNRSPHCDPASQGPARFLPLPGLPPALPEPPGILAPQPPDVGSSDPLAMVGPSQGRSPSYAS
B8: hFGF21(33-209)-V85 (ligand)
chain: DSSPLLQFGGQVRQRYLYTDDAQQTEAHLEIREDGTVGGAAHQSPESLLELKALKPGVIQILGVKTSRFLCQKPDGALYGSLHFDPEACSFRELLLEEGYNVYQSEAHGLPLHLPGNRSPHCDPAPQGPARFLPLPGLPPALPEPPGILAPQPPDVGSSDPLAMVGPSQGRSPSYAS
B9: hFGF21(33-209)-V73-N-40 kDa bPEG-AL (ligand)
chain: DSSPLLQFGGQVRQRYLYTDDAQETEAHLEIREDGTVGGAAHQSPESLLELKALKPGVIQILGVKTSRFLCQKPDGALYGSLHFDPEACSFRELLLEEGYNVYQSEAHGLPLHLPGNRSPHRDPAPQGPARFLPLPGLPPALPEPPGILAPQPPDVGSSDPLAMVGPSQGRSPSYAS
modifications: 40 kDa branched PEG (aldehyde reagent) on the N-terminal amine
B10: hFGF21(33-209)-WT-CH (ligand)
chain: DSSPLLQFGGQVRQRYLYTDDAQQTEAHLEIREDGTVGGAADQSPESLLQLKALKPGVIQILGVKTSRFLCQRPDGALYGSLHFDPEACSFRELLLEDGYNVYQSEAHGLPLHLPGNKSPHRDPAPRGPARFLPLPGLPPALPEPPGILAPQPPDVGSSDPLSMVGPSQGRSPSYAS
B11: hFGF21(33-209)-V76 (ligand)
chain: DSSPLLQFGGQVRQRYLYTDDAQETEAHLEIREDGTVGGAAHQSPESLLELKALKPGVIQILGVKTSRFLCQKPDGALYGSLHFDPEACSFRELLLEDGYNVYQSEAHGLPLHLPGNRSPHCDPAPQGPARFLPLPGLPPALPEPPGILAPQPPDVGSSDPLAMVGPSQGRSPSYAS
B12: hFGF21(33-209)-V80 (ligand)
chain: DSSPLLQFGGQVRQRYLYTDDAQQTEAHLEIREDGTVGGAADQSPESLLELKALKPGVIQILGVKTSRFLCQKPDGTLYGSLHFDPEACSFRELLLEDGYNVYQSEAHGLPLHLPGNRSPHCDPAPQGPARFLPLPGLPPALPEPPGILAPQPPDVGSSDPLAMVGPSQARSPSYAS
B13: hFGF21(33-209)-V82 (ligand)
chain: DSSPLLQFGGQVRQRYLYTDDAQQTEAHLEIREDGTVGGAADQSPESLLELKALKPGVIQILGVKTSRFLCQKPDGTLYGSLHFDPEACSFRELLLEDGYNVYQSEAHGLPLHLPGNRSPHCDPASQGPARFLPLPGLPPALPEPPGILAPQPPDVGSSDPLAMVGPSQGRSPSYAS
B14: hFGF21(33-209)-V83 (ligand)
chain: DSSPLLQFGGQVRQRYLYTDDAQQTEAHLEIREDGTVGGAADQSPESLLELKALKPGVIQILGVKTSRFLCQKPDGTLYGSLHFDPEACSFRELLLEDGYNVYQSEAHGLPLHLPGNRSPHCDPASRGPARFLPLPGLPPALPEPPGILAPQPPDVGSSDPLAMVGPSQARSPSYAS
B15: hFGF21(33-209)-V79 (ligand)
chain: DSSPLLQFGGQVRQRYLYTDDAQQTEAHLEIREDGTVGGAAHQSPESLLELKALKPGVIQILGVKTSRFLCQKPDGALYGSLHFDPEACSFRELLLEDGYNVYQSEAHGLPLHLPGNRSPHCDPAPQGPARFLPLPGLPPALPEPPGILAPQPPDVGSSDPLAMVGPSQARSPSYAS
B16: hFGF21(33-209)-WT-R154C (ligand)
chain: DSSPLLQFGGQVRQRYLYTDDAQQTEAHLEIREDGTVGGAADQSPESLLQLKALKPGVIQILGVKTSRFLCQRPDGALYGSLHFDPEACSFRELLLEDGYNVYQSEAHGLPLHLPGNKSPHCDPAPRGPARFLPLPGLPPALPEPPGILAPQPPDVGSSDPLSMVGPSQGRSPSYAS

This assay addresses T1, human β-klotho (human, UniProt Q86Z14 1-1044).
T1 sequence (looked up): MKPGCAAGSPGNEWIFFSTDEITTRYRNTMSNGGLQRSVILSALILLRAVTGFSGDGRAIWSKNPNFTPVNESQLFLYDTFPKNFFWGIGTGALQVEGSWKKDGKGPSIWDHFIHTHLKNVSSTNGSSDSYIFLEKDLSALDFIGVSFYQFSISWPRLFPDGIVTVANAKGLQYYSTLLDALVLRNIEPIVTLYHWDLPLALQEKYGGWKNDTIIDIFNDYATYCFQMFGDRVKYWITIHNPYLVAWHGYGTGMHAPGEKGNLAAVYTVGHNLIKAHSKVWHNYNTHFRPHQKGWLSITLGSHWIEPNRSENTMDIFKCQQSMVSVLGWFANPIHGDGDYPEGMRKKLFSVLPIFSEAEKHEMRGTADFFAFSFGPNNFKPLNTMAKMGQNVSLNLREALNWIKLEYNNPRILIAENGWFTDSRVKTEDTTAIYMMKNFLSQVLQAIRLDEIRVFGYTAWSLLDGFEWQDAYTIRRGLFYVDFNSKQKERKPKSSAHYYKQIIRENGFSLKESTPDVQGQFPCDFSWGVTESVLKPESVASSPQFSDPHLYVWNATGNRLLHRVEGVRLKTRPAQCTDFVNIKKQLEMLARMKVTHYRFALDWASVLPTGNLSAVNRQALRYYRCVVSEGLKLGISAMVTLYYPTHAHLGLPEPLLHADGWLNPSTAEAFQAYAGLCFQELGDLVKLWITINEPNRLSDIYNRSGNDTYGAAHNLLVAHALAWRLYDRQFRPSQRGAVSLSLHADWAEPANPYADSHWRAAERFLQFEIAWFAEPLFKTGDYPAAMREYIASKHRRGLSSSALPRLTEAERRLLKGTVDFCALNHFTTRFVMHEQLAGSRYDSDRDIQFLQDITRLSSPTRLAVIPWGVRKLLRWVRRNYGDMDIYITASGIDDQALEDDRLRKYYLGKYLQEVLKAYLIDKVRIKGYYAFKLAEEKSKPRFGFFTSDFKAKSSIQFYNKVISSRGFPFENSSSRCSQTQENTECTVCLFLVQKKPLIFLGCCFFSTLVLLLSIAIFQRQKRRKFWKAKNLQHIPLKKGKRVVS
The assay can be described thus: cell-based or functional assay.
For the molecule B1, the “EC50 (nM), pERK In Cell Western” value amounted to 8.5 nM and the “Fold-WT (EC50 of variant / EC50 of FGF21-WT)” value turned out to be 4.5 fold.
In the same order, the values of B2 are 1.9 nM and 1.6 fold.
In the same order, the values of B3 are 5.8 nM and 1.7 fold.
In the case of B4, the “EC50 (nM), pERK In Cell Western” value turned out to be 4.5 nM and the “Fold-WT (EC50 of variant / EC50 of FGF21-WT)” value came out at 1.1 fold.
In the same order, the values of B5 are 8.3 nM and 2.4 fold.
Turning to B6, the “EC50 (nM), pERK In Cell Western” value was found to be 13 nM and the “Fold-WT (EC50 of variant / EC50 of FGF21-WT)” value came to 2.4 fold.
In the same order, the values of B7 are 11 nM and 2.1 fold.
In the case of B8, the “EC50 (nM), pERK In Cell Western” value stood at 2 nM and the “Fold-WT (EC50 of variant / EC50 of FGF21-WT)” value amounted to 0.3 fold.
In the same order, the values of B9 are 191 nM and 66 fold.
As to B10, the “EC50 (nM), pERK In Cell Western” value amounted to 7.4 nM and the “Fold-WT (EC50 of variant / EC50 of FGF21-WT)” value amounted to 1 fold.
In the same order, the values of B11 are 3.4 nM and 0.47 fold.
As to B12, the “EC50 (nM), pERK In Cell Western” value was 2.2 nM and the “Fold-WT (EC50 of variant / EC50 of FGF21-WT)” value worked out at 0.4 fold.
In the same order, the values of B13 are 1.5 nM and 2.7 fold.
In the same order, the values of B14 are 0.21 nM and 0.38 fold.
In the same order, the values of B15 are 2.2 nM and 0.4 fold.
Consider B16, for which the “EC50 (nM), pERK In Cell Western” value worked out at 4.2 nM and the “Fold-WT (EC50 of variant / EC50 of FGF21-WT)” value is 1.3 fold.
